Results on 35 molecules are retold here after US20180355014A1.

One assay concerns the target HLA-A*11:01 (human). The assay is described as follows: REVEAL MHC-peptide binding assay, recombinant HLA-A*11:01. The note with it: remark: other sources report otherwise.
The target in a further assay is HLA-B*08:01 (human). The experiment in a line: REVEAL MHC-peptide binding assay, recombinant HLA-B*08:01. The note with it: remark: other sources report otherwise.

As to IIFWVQRGA [… (SEQ ID NO: 81)], the figures for the In Vitro Score (% of positive control peptide) with HLA-A*11:01 (human) and with HLA-B*08:01 (human) were 56.5 and 0.2, respectively.

For FIIFWVHRG [… (SEQ ID NO: 39)], the values for the In Vitro Score (% of positive control peptide) with HLA-A*11:01 (human) and in the assay with HLA-B*08:01 (human) were 0.9 and 0.2, respectively.

In the case of IFWVKRGLK [… (SEQ ID NO: 62)], the In Vitro Score (% of positive control peptide) came out at 61.1 in the assay with HLA-A*11:01 (human) and 58.3 in the assay with HLA-B*08:01 (human).

For IIFWVKRGA [… (SEQ ID NO: 69)], the values for the In Vitro Score (% of positive control peptide) in the assay with HLA-A*11:01 (human) and with HLA-B*08:01 (human) were 22.6 and 0.9, respectively.

Take WVKRGAKKL [… (SEQ ID NO: 72)]: the figures for the In Vitro Score (% of positive control peptide) with HLA-A*11:01 (human) and with HLA-B*08:01 (human) were 4.6 and 34.1, respectively.

As for IFWVQRGNK [… (SEQ ID NO: 86)], the In Vitro Score (% of positive control peptide) with HLA-A*11:01 (human) worked out at 67.5; with HLA-B*08:01 (human), 0.1.

With IIFWVARGR [… (SEQ ID NO: 46)], the In Vitro Score (% of positive control peptide) with HLA-A*11:01 (human) worked out at 70.6; in the assay with HLA-B*08:01 (human) it was 0.3.

Regarding IIFWVQRGR [… (SEQ ID NO: 53)], the In Vitro Score (% of positive control peptide) with HLA-A*11:01 (human) came to 72.8; with HLA-B*08:01 (human), 0.1.

IFWVKRGHK [… (SEQ ID NO: 66)]: the figures for the In Vitro Score (% of positive control peptide) in the assay with HLA-A*11:01 (human) and in the assay with HLA-B*08:01 (human) were 30.9 and 3.2, respectively.

In the case of IIFWVSRGR [… (SEQ ID NO: 26)], the In Vitro Score (% of positive control peptide) amounted to 68.9 in the assay with HLA-A*11:01 (human) and 0 with HLA-B*08:01 (human).

AFIIFWVAR [… (SEQ ID NO: 45)]: the In Vitro Score (% of positive control peptide) with HLA-A*11:01 (human) was found to be 51.8; in the assay with HLA-B*08:01 (human) it was 0.2.

For the molecule VAFIIFWVS [… (SEQ ID NO: 23)], the In Vitro Score (% of positive control peptide) worked out at 25.1 with HLA-A*11:01 (human) and 0.1 in the assay with HLA-B*08:01 (human).

On to IFWVKRGSK [… (SEQ ID NO: 58)], for which the In Vitro Score (% of positive control peptide) with HLA-A*11:01 (human) worked out at 47.9; in the assay with HLA-B*08:01 (human), 1.2.

With IFWVQRGRK [… (SEQ ID NO: 54)], the results for the In Vitro Score (% of positive control peptide) with HLA-A*11:01 (human) and with HLA-B*08:01 (human) were 128 and 0, respectively.

On to WVKRGNKKL [… (SEQ ID NO: 76)], for which the In Vitro Score (% of positive control peptide) turned out to be 4.1 with HLA-A*11:01 (human) and 65.9 in the assay with HLA-B*08:01 (human).

Regarding AFIIFWVHR [… (SEQ ID NO: 38)], in the assay with HLA-A*11:01 (human), the In Vitro Score (% of positive control peptide) was found to be 34.9.

For the molecule VAFIIFWVK [… (SEQ ID NO: 16)], the In Vitro Score (% of positive control peptide) turned out to be 109 with HLA-A*11:01 (human) and 0.3 in the assay with HLA-B*08:01 (human).

Consider IIFWVHRGR [… (SEQ ID NO: 40)], for which the In Vitro Score (% of positive control peptide) turned out to be 77.5 in the assay with HLA-A*11:01 (human) and 0.2 with HLA-B*08:01 (human).

Regarding IFWVKRGAK [… (SEQ ID NO: 70)], the In Vitro Score (% of positive control peptide) with HLA-A*11:01 (human) worked out at 69.7; with HLA-B*08:01 (human) it was 2.2.

With IIFWVKRGN [… (SEQ ID NO: 73)], the In Vitro Score (% of positive control peptide) with HLA-A*11:01 (human) was determined as 42.1; in the assay with HLA-B*08:01 (human), 0.9.

In the case of IFWVHRGRK [… (SEQ ID NO: 41)], the In Vitro Score (% of positive control peptide) with HLA-A*11:01 (human) was 36.6; with HLA-B*08:01 (human), 0.1.

Consider IIFWVKRGR [… (SEQ ID NO: 19)], for which the In Vitro Score (% of positive control peptide) amounted to 54.5 in the assay with HLA-A*11:01 (human) and 0 with HLA-B*08:01 (human).

With WVKRGHKKL [… (SEQ ID NO: 68)], the In Vitro Score (% of positive control peptide) amounted to 2.8 in the assay with HLA-A*11:01 (human) and 47.6 with HLA-B*08:01 (human).

IIFWVLRGR [… (SEQ ID NO: 33)]: the In Vitro Score (% of positive control peptide) with HLA-A*11:01 (human) is 35.2; with HLA-B*08:01 (human) it was 0.4.

IFWVSRGRK [… (SEQ ID NO: 27)]: the In Vitro Score (% of positive control peptide) with HLA-B*08:01 (human) was 0.

In the case of WVKRGSKKL [… (SEQ ID NO: 60)], the In Vitro Score (% of positive control peptide) with HLA-A*11:01 (human) was 11.8; with HLA-B*08:01 (human), 56.1.

Regarding IFWVQRGAK [… (SEQ ID NO: 82)], the In Vitro Score (% of positive control peptide) with HLA-A*11:01 (human) turned out to be 61.3; in the assay with HLA-B*08:01 (human) it was 0.2.

For the molecule IFWVKRGNK [… (SEQ ID NO: 74)], the In Vitro Score (% of positive control peptide) with HLA-A*11:01 (human) worked out at 45.9; with HLA-B*08:01 (human) it was 0.1.

On to WVQRGRKKL [… (SEQ ID NO: 56)], for which the In Vitro Score (% of positive control peptide) with HLA-A*11:01 (human) was 12.8; with HLA-B*08:01 (human) it was 45.1.

In the case of IIFWVKRGS [… (SEQ ID NO: 57)], the In Vitro Score (% of positive control peptide) with HLA-B*08:01 (human) was 0.4.

For the molecule WVQRGNKKL [… (SEQ ID NO: 88)], the results for the In Vitro Score (% of positive control peptide) with HLA-A*11:01 (human) and in the assay with HLA-B*08:01 (human) were 10.7 and 32, respectively.

With WVARGRKKL [… (SEQ ID NO: 49)], the In Vitro Score (% of positive control peptide) with HLA-A*11:01 (human) turned out to be 13.8; in the assay with HLA-B*08:01 (human), 32.4.

In the case of IFWVARGRK [… (SEQ ID NO: 47)], the In Vitro Score (% of positive control peptide) was 34.9 in the assay with HLA-A*11:01 (human) and 0 with HLA-B*08:01 (human).

Regarding AFIIFWVSR [… (SEQ ID NO: 24)], in the assay with HLA-A*11:01 (human), the In Vitro Score (% of positive control peptide) worked out at 54.

For IIFWVKRGL [… (SEQ ID NO: 61)], the In Vitro Score (% of positive control peptide) is 32.4 with HLA-A*11:01 (human) and 1.7 in the assay with HLA-B*08:01 (human).
